# Publication PMC6499106, “The CXCR4-LASP1-eIF4F Axis Promotes Translation of Oncogenic Proteins in Triple-Negative Breast Cancer Cells” (Frontiers in Oncology, 2019)
# B1: LIM and SH3 Protein 1 (LASP1), endogenous in 231S cells (natural protein, human (endogenous in 231S, MDA-MB-231), UniProt Q14847 1-261, looked up)
# chain: MNPNCARCGKIVYPTEKVNCLDKFWHKACFHCETCKMTLNMKNYKGYEKKPYCNAHYPKQSFTMVADTPENLRLKQQSELQSQVRYKEEFEKNKGKGFSVVADTPELQRIKKTQDQISNIKYHEEFEKSRMGPSGGEGMEPERRDSQDGSSYRRPLEQQQPHHIPTSAPVYQQPQQQPVAQSYGGYKEPAAPVSIQRSAPGGGGKRYRAVYDYSAADEDEVSFQDGDTIVNVQQIDDGWMYGTVERTGDTGMLPANYVEAI
# notes: LIM and SH3 protein 1 (LASP1), endogenous in human 231S breast cancer cells; source: endogenous, 231S (MDA-MB-231 sorted for high CXCR4) cells, in lysate or in situ
# Molecular target: T1, eIF4E, the cap binding subunit of eIF4F, endogenous in 231S cells (human (endogenous in 231S, MDA-MB-231), UniProt P06730 1-217)
# T1 construct: source: endogenous, 231S cells, in lysate, held on m7-GTP agarose beads
# T1 sequence (P06730 whole entry): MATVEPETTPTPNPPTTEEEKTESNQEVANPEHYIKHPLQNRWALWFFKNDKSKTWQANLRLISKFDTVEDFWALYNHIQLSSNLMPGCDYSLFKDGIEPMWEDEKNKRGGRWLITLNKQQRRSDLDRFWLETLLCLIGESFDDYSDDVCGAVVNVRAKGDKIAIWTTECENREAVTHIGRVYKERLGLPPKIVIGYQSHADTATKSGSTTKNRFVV
# Experiment: pull-down; m7-GTP agarose beads with 1 mg 231S lysate in Co-IP buffer overnight at 4°C; cells stimulated with 20 nM CXCL12 over time, with or without 100 nM AMD3465; eIF4E as precipitate, LASP1 or eIF4G as co-precipitate by Western blot
# Details: partners not purified
binder,measurement,value
B1,"fold change of co-precipitate, CXCL12 for 5 min against 0 min",2.2 fold
